B1: ATE1 (parent)
chain: YGSFHQQYWLDGKIIAVGVIDILP
B2: KCNA1 (parent)
chain: LKASMRELGLLIFFLFIGVILFSS

Variants of: B1
Experiment: protein stability index of a GFP-peptide fusion (GPS, HEK-293T) (PSI 1-6); higher = more stable
Settings: c terminus: a fixed tail appended
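Note: lentivirally expressed fusions sorted by FACS into six bins by GFP to DsRed ratio, PSI derived from sequencing read proportions per bin multiplied by bin number.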

Variant	protein stability index
YGSFHQQYWLDGKIIAVGVIDIQP [L23Q]	3.64
YGSFHQQYWLDGKIIAVGVIDISP [L23S]	2.66
YGSFHQQYWLDGKIIAVGVIDIPP [L23P]	2.72
YGSFHQQYWLDGKIIAVGVIDITP [L23T]	2.53
YGSFHQQYWLDGKIIAVGVIDILS [P24S]	1.79
YGSFHQQYWLDGKIIAVGVIDILK [P24K]	1.04
YGSFHQQYWLDGKIIAVGVIDILL [P24L]	4.25
YGSFHQQYWLDGKIIAVGVIDILF [P24F]	1.69
YGSFHQQYWLDGKIIAVGVIDILI [P24I]	2.73
YGSFHQQYWLDGKIIAVGVIDILV [P24V]	3.01
YGSFHQQYWLDGKIIAVGVIDILA [P24A]	2.06
YGSFHQQYWLDGKIIAVGVIDILW [P24W]	3.2
YGSFHQQYWLDGKIIAVGVIDILQ [P24Q]	2.51
YGSFHQQYWLDGKIIAVGVIDILM [P24M]	2.18
YGSFHQQYWLDGKIIAVGVIDILG [P24G]	3.18

Variants of: B2
Experiment: as above
Settings: c terminus: a fixed tail appended

Variant	protein stability index
LKASMRELGLLIFFLFIGVILWSS [F22W]	2.75
LKASMRELGLLIFFLFIGVILGSS [F22G]	1.81
LKASMRELGLLIFFLFIGVILASS [F22A]	2.33
LKASMRELGLLIFFLFIGVILVSS [F22V]	1.8
LKASMRELGLLIFFLFIGVILESS [F22E]	2.63
LKASMRELGLLIFFLFIGVILSSS [F22S]	2.95
LKASMRELGLLIFFLFIGVILLSS [F22L]	2.25
LKASMRELGLLIFFLFIGVILISS [F22I]	2.43
LKASMRELGLLIFFLFIGVILYSS [F22Y]	1.93
LKASMRELGLLIFFGFIGVILFSS [L15G]	2.53
LKASMRELGLLIFFHFIGVILFSS [L15H]	2.11
LKASMRELGLLIFFWFIGVILFSS [L15W]	2.7
LKASMRELGLLIFFAFIGVILFSS [L15A]	2.44
LKASMRELGLLIFFTFIGVILFSS [L15T]	3.59
LKASMRELGLLIFFLHIGVILFSS [F16H]	3.79
LKASMRELGLLIFFLMIGVILFSS [F16M]	2.17
LKASMRELGLLIFFLEIGVILFSS [F16E]	3.14
LKASMRELGLLIFFLDIGVILFSS [F16D]	1.64
LKASMRELGLLIFFLRIGVILFSS [F16R]	1.32
LKASMRELGLLIFFLVIGVILFSS [F16V]	2.07
LKASMRELGLLIFFLSIGVILFSS [F16S]	2.55
LKASMRELGLLIFFLYIGVILFSS [F16Y]	3.35
LKASMRELGLLIFFLIIGVILFSS [F16I]	2.25
LKASMRELGLLIFFLKIGVILFSS [F16K]	2.35
LKASMRELELLIFFLFIGVILFSS [G9E]	4.03

Variant	protein stability index
LKASMRELVLLIFFLFIGVILFSS [G9V]	1.71
LKASMRELFLLIFFLFIGVILFSS [G9F]	2.07
LKASMRELYLLIFFLFIGVILFSS [G9Y]	2.34
LKASMRELQLLIFFLFIGVILFSS [G9Q]	4.69
LKASMRELSLLIFFLFIGVILFSS [G9S]	1.98
LKASDRELGLLIFFLFIGVILFSS [M5D]	2.29
LKASARELGLLIFFLFIGVILFSS [M5A]	3.19
LKASTRELGLLIFFLFIGVILFSS [M5T]	2.21
LKASGRELGLLIFFLFIGVILFSS [M5G]	1.28
LKASSRELGLLIFFLFIGVILFSS [M5S]	2.33
LKASQRELGLLIFFLFIGVILFSS [M5Q]	3.33
MKASMRELGLLIFFLFIGVILFSS [L1M]	2.27
DKASMRELGLLIFFLFIGVILFSS [L1D]	3.09
IKASMRELGLLIFFLFIGVILFSS [L1I]	2.29
RKASMRELGLLIFFLFIGVILFSS [L1R]	1.4
NKASMRELGLLIFFLFIGVILFSS [L1N]	2.84
LTASMRELGLLIFFLFIGVILFSS [K2T]	2.01
LCASMRELGLLIFFLFIGVILFSS [K2C]	1.28
LVASMRELGLLIFFLFIGVILFSS [K2V]	3.35
LGASMRELGLLIFFLFIGVILFSS [K2G]	2.49
LIASMRELGLLIFFLFIGVILFSS [K2I]	2.79
LDASMRELGLLIFFLFIGVILFSS [K2D]	2.89
LEASMRELGLLIFFLFIGVILFSS [K2E]	3.11
LKASMRELGLLHFFLFIGVILFSS [I12H]	3.35
LKASMRELGLLDFFLFIGVILFSS [I12D]	2.94

Variant	protein stability index
LKASMRELGLLGFFLFIGVILFSS [I12G]	3.16
LKASMRELGLLNFFLFIGVILFSS [I12N]	3.05
LKASMRELGLLEFFLFIGVILFSS [I12E]	3.27
LKASMRELGLLQFFLFIGVILFSS [I12Q]	2.17
LKASMRELGLLIFFLFIGVWLFSS [I20W]	2.02
LKASMRELGLLIFFLFIGVYLFSS [I20Y]	2.65
LKASMRELGLLIFFLFIGVFLFSS [I20F]	2.32
LKASMRELGLLIFFLFIGVSLFSS [I20S]	2.1
LKASMRELGLLIFFLFIGVTLFSS [I20T]	2.4
LKASMRELGLLIFFLFIGVLLFSS [I20L]	1.96
LKASMRCLGLLIFFLFIGVILFSS [E7C]	1.65
LKASMRILGLLIFFLFIGVILFSS [E7I]	2.77
LKASMRPLGLLIFFLFIGVILFSS [E7P]	2.28
LKASMRYLGLLIFFLFIGVILFSS [E7Y]	1.74
LKASMRRLGLLIFFLFIGVILFSS [E7R]	2.07
LKASMRTLGLLIFFLFIGVILFSS [E7T]	2.01
LKASMRMLGLLIFFLFIGVILFSS [E7M]	1.95
LKASMRLLGLLIFFLFIGVILFSS [E7L]	2.16
LKASMRWLGLLIFFLFIGVILFSS [E7W]	1.42
LKTSMRELGLLIFFLFIGVILFSS [A3T]	2.12
LKRSMRELGLLIFFLFIGVILFSS [A3R]	1.74
LKKSMRELGLLIFFLFIGVILFSS [A3K]	2.16
LKLSMRELGLLIFFLFIGVILFSS [A3L]	1.77
LKNSMRELGLLIFFLFIGVILFSS [A3N]	1.86
LKMSMRELGLLIFFLFIGVILFSS [A3M]	1.58

Variant	protein stability index
LKDSMRELGLLIFFLFIGVILFSS [A3D]	2.46
LKGSMRELGLLIFFLFIGVILFSS [A3G]	1.65
LKSSMRELGLLIFFLFIGVILFSS [A3S]	2.37
LKASMMELGLLIFFLFIGVILFSS [R6M]	3.15
LKASMWELGLLIFFLFIGVILFSS [R6W]	2.35
LKASMTELGLLIFFLFIGVILFSS [R6T]	3.38
LKASMVELGLLIFFLFIGVILFSS [R6V]	2.45
LKASMQELGLLIFFLFIGVILFSS [R6Q]	2.28
LKASMKELGLLIFFLFIGVILFSS [R6K]	1.61
LKAQMRELGLLIFFLFIGVILFSS [S4Q]	2.55
LKAFMRELGLLIFFLFIGVILFSS [S4F]	2.15
LKAIMRELGLLIFFLFIGVILFSS [S4I]	1.69
LKANMRELGLLIFFLFIGVILFSS [S4N]	2.31
LKAEMRELGLLIFFLFIGVILFSS [S4E]	3.02
LKADMRELGLLIFFLFIGVILFSS [S4D]	3.58
LKAWMRELGLLIFFLFIGVILFSS [S4W]	1.55
LKAMMRELGLLIFFLFIGVILFSS [S4M]	1.97
LKAVMRELGLLIFFLFIGVILFSS [S4V]	2.65
LKASMRELGLLIFFLFIGVIDFSS [L21D]	3.39
LKASMRELGLLIFFLFIGVIRFSS [L21R]	3.21
LKASMRELGLLIFFLFIGVIYFSS [L21Y]	1.91
LKASMRELGLLIFFLFIGVIVFSS [L21V]	2.12
LKASMRELGLLIFFLFIGVIFFSS [L21F]	3.04
LKASMRELGLLIFFLFIGVIGFSS [L21G]	3.19
LKASMRELGLLIFFLFIGVIPFSS [L21P]	2.86

Variant	protein stability index
LKASMRELGLLIFFLFIGVIMFSS [L21M]	2.32
LKASMRELGLLIFFLFIGVICFSS [L21C]	2.43
LKASMRELGLLIFFLFIGVILFSI [S24I]	1.23
LKASMRELGLLIFFLFIGVILFSL [S24L]	1.47
LKASMRELGLLIFFLFIGVILFSV [S24V]	1.85
LKASMRELGLLIFFLFIGVILFSW [S24W]	1.84
LKASMRELGLLIFFLFIGVILFSA [S24A]	2.04
LKASMRELGLLIFFLFIGVILFSP [S24P]	3.1
LKASMRELGLLIFFLFIGVILFSQ [S24Q]	2.11
LKASMRELGLLIFFLFIGVILFSH [S24H]	2
LKASMRELGLLIFFLFIGVILFSN [S24N]	2.83
LKASMRELGLLIFFLFIGVILFSC [S24C]	1.19
LKASMRELGSLIFFLFIGVILFSS [L10S]	2.77
LKASMRELGDLIFFLFIGVILFSS [L10D]	3.28
LKASMRELGGLIFFLFIGVILFSS [L10G]	4.36
LKASMRELGVLIFFLFIGVILFSS [L10V]	1.23
LKASMRELGLLIRFLFIGVILFSS [F13R]	2.03
LKASMRELGLLIYFLFIGVILFSS [F13Y]	4.13
LKASMRELGLLIHFLFIGVILFSS [F13H]	3.07
LKASMRELGLLIIFLFIGVILFSS [F13I]	1.77
LKASMRELGLLIVFLFIGVILFSS [F13V]	1.63
LKASMRELGLLIFFLFLGVILFSS [I17L]	1.95
LKASMRELGLLIFFLFAGVILFSS [I17A]	2.83
LKASMRELGLLIFFLFWGVILFSS [I17W]	3.85
LKASMRELGLLIFFLFPGVILFSS [I17P]	2.77

Variant	protein stability index
LKASMRELGLLIFFLFMGVILFSS [I17M]	3.35
LKASMRELGLLIFFLFQGVILFSS [I17Q]	2.82
LKASMRELGLLIFFLFCGVILFSS [I17C]	2.56
LKASMRELGLLIFELFIGVILFSS [F14E]	2.74
LKASMRELGLLIFNLFIGVILFSS [F14N]	2.85
LKASMRELGLLIFLLFIGVILFSS [F14L]	2.98
LKASMRELGLLIFVLFIGVILFSS [F14V]	2.82
LKASMRELGLLIFTLFIGVILFSS [F14T]	2.79
LKASMRELGLLIFHLFIGVILFSS [F14H]	3.41
LKASMRELGLLIFILFIGVILFSS [F14I]	2.74
LKASMRELGLLIFDLFIGVILFSS [F14D]	2.93
LKASMRELGLLIFYLFIGVILFSS [F14Y]	3.01
LKASMRELGLLIFFLFIDVILFSS [G18D]	1.87
LKASMRELGLLIFFLFIQVILFSS [G18Q]	2.75
LKASMRELGLLIFFLFIAVILFSS [G18A]	1.77
LKASMRELGLLIFFLFIFVILFSS [G18F]	3.9
LKASMRELGLLIFFLFILVILFSS [G18L]	1.82
LKASMRELGLLIFFLFIPVILFSS [G18P]	1.86
LKASMRELGLLIFFLFIMVILFSS [G18M]	2.2
LKASMRELGLLIFFLFIGQILFSS [V19Q]	3.09
LKASMRELGLLIFFLFIGMILFSS [V19M]	2.52
LKASMRELGLLIFFLFIGRILFSS [V19R]	2.66
LKASMRELGLLIFFLFIGWILFSS [V19W]	2.1
LKASMRELGLLIFFLFIGDILFSS [V19D]	2.65
LKASMRELGLLIFFLFIGAILFSS [V19A]	2.58

Variant	protein stability index
LKASMRELGLLIFFLFIGLILFSS [V19L]	1.59
LKASMRELGLLIFFLFIGKILFSS [V19K]	4.72
LKASMRELGLFIFFLFIGVILFSS [L11F]	1.74
LKASMRELGLCIFFLFIGVILFSS [L11C]	4.25
LKASMRELGLIIFFLFIGVILFSS [L11I]	2.49
LKASMRELGLKIFFLFIGVILFSS [L11K]	3.54
LKASMRELGLVIFFLFIGVILFSS [L11V]	1.61
LKASMRELGLLIFFLFIGVILFTS [S23T]	1.44
LKASMRELGLLIFFLFIGVILFPS [S23P]	2.42
LKASMRELGLLIFFLFIGVILFWS [S23W]	2.38
LKASMRELGLLIFFLFIGVILFQS [S23Q]	2.13
LKASMRELGLLIFFLFIGVILFCS [S23C]	1.67
LKASMRELGLLIFFLFIGVILFIS [S23I]	1.85
LKASMRECGLLIFFLFIGVILFSS [L8C]	2.28
LKASMREIGLLIFFLFIGVILFSS [L8I]	2.27
LKASMREDGLLIFFLFIGVILFSS [L8D]	2.32
LKASMREQGLLIFFLFIGVILFSS [L8Q]	2.55
LKASMRETGLLIFFLFIGVILFSS [L8T]	2.48
LKASMRERGLLIFFLFIGVILFSS [L8R]	2.8
LKASMREEGLLIFFLFIGVILFSS [L8E]	4
LKASMREHGLLIFFLFIGVILFSS [L8H]	2.1
LKASMREYGLLIFFLFIGVILFSS [L8Y]	2.58
LKASMREWGLLIFFLFIGVILFSS [L8W]	2.85
